# Data as given in ChEMBL document CHEMBL1127885, “Benzylpenicillin methyl phosphate. A penicillin prodrug that inactivates RTEM -lactamase” (Bioorg Med Chem Lett, 1994).
# B1: Beta-lactamase TEM (Escherichia coli), P62593 (protein)
# chain: MSIQHFRVALIPFFAAFCLPVFAHPETLVKVKDAEDQLGARVGYIELDLNSGKILESFRPEERFPMMSTFKVLLCGAVLSRVDAGQEQLGRRIHYSQNDLVEYSPVTEKHLTDGMTVRELCSAAITMSDNTAANLLLTTIGGPKELTAFLHNMGDHVTRLDRWEPELNEAIPNDERDTTMPAAMATTLRKLLTGELLTLASRQQLIDWMEADKVAGPLLRSALPAGWFIADKSGAGERGSRGIIAALGPDGKPSRIVVIYTTGSQATMDERNRQIAEIGASLIKHW
# Substrate: COP(=O)(O)OC(=O)[C@@H]1N2C(=O)[C@@H](NC(=O)Cc3ccccc3)[C@H]2SC1(C)C
# Assay: Km against beta-lactamase in Escherichia coli
protein,measurement,value
B1,Km,> 50 mM
